Experiments:
[1] = biological target: R9-Oct3/4 (Homo sapiens, UniProt Q01860 Q01860:1-360); test: NoShift plate assay, 0.5 uM DNA; reduced by unlabelled consensus competitor; settings: protein: synthetic; tags: N-terminal CAT9-StrepTagII-Xa-R9-His6-G4S fusion, E. coli cell-free synthesis; label: biotin
Description: (§1) Assessment of the DNA Binding Activities of the Fusion Reprogramming Factors. The DNA-binding activities of the R9-Nanog, R9-Oct3/4, and R9-Sox2 fusion proteins were assayed by colorimetry utilizing the NoShift Transcription Factor Assay Kit (Novagen) according to the manufacturer's instructions. To assess sequence-specific binding activity, 1-2 μg of the R9-Nanog fusion protein, 2-10 μg of the R9-Oct3/4 fusion protein or 1-4 μg of the R9-Sox2 fusion protein were each incubated in […] with 0.5 μM of their respective biotinylated consensus dsDNA binding targets. […] Non-biotinylated competitor consensus dsDNA and scrambled dsDNA used to assess competitive binding were added at […]. As a positive control, recombinant human (rh) Nanog (Abcam) and rhSox (Peprotech) were used. HRP-conjugated anti-mouse immunoglobulin G was used as a secondary antibody to recognize the anti-Nanog (Abcam), anti-Oct3/4 (R&D Systems), and anti-Sox2 (R&D Systems) mouse monoclonal antibodies. All assays were performed in duplicate. Binding activity was measured via colorimetric absorbance at 450 nm on a Tecan multiwell spectrophotometer using 3,3,5,5-tetramethylbenzidine as the substrate.
(§2) The NoShift Assay (Novagen) was used to verify the DNA binding activities of R9-Nanog, R9-Sox2, and R9-Oct3/4. […]

[2] = biological target: R9-Sox2 (Homo sapiens, UniProt P48431 P48431:1-317); test: as above; settings: protein: synthetic; tags: N-terminal CAT9-StrepTagII-Xa-R9-His6-G4S fusion, E. coli cell-free synthesis; label: biotin
Sequence of R9-Sox2 (P48431 whole entry, the tested form may be a part, one chain of several): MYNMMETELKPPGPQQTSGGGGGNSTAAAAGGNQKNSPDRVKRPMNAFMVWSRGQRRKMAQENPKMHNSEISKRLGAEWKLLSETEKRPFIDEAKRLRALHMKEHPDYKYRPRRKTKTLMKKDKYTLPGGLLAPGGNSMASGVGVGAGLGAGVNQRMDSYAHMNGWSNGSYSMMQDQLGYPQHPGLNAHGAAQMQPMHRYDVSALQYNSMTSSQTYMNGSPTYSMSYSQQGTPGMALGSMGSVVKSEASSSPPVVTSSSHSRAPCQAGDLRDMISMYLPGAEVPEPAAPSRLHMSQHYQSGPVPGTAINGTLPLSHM
Description: as §1, §2

[3] = biological target: rhSox2 (Homo sapiens, UniProt P48431 P48431:1-317); test: NoShift plate assay, positive control; settings: tags: Peprotech; label: biotin
Sequence of rhSox2 (P48431 whole entry, one chain of several): as the sequence (P48431 whole entry, the tested form may be a part, one chain of several) above
Description: as §1, §2

[4] = biological target: rhNanog (Homo sapiens, UniProt Q9H9S0 Q9H9S0:1-305); test: NoShift plate assay, positive control; settings: tags: Abcam; label: biotin
Sequence of rhNanog (Q9H9S0 whole entry, one chain of several): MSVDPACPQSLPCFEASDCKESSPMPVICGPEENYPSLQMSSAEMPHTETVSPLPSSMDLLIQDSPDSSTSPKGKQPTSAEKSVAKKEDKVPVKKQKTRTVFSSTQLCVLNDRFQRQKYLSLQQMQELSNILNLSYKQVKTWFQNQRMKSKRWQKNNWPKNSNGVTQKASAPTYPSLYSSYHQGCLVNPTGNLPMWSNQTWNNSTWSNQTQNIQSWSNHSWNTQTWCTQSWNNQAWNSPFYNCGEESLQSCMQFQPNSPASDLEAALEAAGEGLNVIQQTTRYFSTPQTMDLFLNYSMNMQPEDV
Description: as §1, §2

Sequence of R9-Oct3/4 (Q01860 whole entry, the tested form may be a part, one chain of several): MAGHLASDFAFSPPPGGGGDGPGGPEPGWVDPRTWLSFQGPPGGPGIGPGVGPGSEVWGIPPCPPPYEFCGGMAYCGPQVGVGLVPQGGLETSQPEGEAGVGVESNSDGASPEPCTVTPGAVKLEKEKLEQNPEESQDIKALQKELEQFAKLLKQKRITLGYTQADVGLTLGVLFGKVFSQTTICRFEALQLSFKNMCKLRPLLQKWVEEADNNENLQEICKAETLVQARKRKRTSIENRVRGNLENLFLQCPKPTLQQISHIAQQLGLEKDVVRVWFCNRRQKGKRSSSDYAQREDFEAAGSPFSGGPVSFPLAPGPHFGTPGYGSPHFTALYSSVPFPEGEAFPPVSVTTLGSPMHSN

B1: Oct3/4 consensus dsDNA (dsDNA)
DNA 1: GCAGAGAGATGCATGTGCCGT
DNA 2: ACGGCACATGCATCTCTCTGC
binding result [1]: binds

B2: Sox2 consensus dsDNA (dsDNA)
DNA 1: GCAGAGGACAAAGGTGCCGTG
DNA 2: CACGGCACCTTTGTCCTCTGC
binding result [2]: binds
binding result [3]: binds

B3: Nanog consensus dsDNA (dsDNA)
DNA 1: ACCTGTTAATGGGAGCGC
DNA 2: GCGCTCCCATTAACAGGT
binding result [4]: binds
